The results in this text go back to article PMC3323579.

One test addresses yeast 26S proteasome (RPN11-3XFLAG) (yeast) (UniProt P43588). Description: ELISA; 26S proteasome (1 µg/ml, 0.37 nM) captured on plates coated with anti-FLAG antibody; Mb 580 nM to 0.006 nM in TBST with 1 mM ATP, 5 mM MgCl2, 0.1% BSA; bound Mb detected with anti-Mb antibody; one site specific binding fit.
Broadly, the Kd is a measure of binding affinity in units of concentration. Low readings indicate a tighter complex, high ones a looser complex. “apomyoglobin L104C (G-helix mutant) (natural protein)” showed a dissociation constant (Kd) of 0.6 nM.

Substance “apomyoglobin M131C (H-helix mutant) (natural protein)” came in with a dissociation constant Kd of 45 nM.

“apomyoglobin V10C (A-helix mutant) (natural protein)”: the Kd turned out to be 1.25 nM.

Turning to “apomyoglobin F-helix mutant G80A/P88A/S92A/H97N (natural protein)”, the Kd amounted to 0.57 nM.

On to “apomyoglobin (sperm whale myoglobin, heme removed), wild type (from UniProt P02185 1-154) (natural protein)”, for which the Kd was found to be 3.5 nM.

“apomyoglobin T39C (C-helix mutant) (natural protein)”: the Kd came to 19.5 nM.

In turn, “apomyoglobin L115C (G-helix mutant) (natural protein)” came in with a Kd of 0.63 nM.

For another test the target is unchanged.
Test: not given
Turning to “apomyoglobin (sperm whale myoglobin, heme removed), wild type (from UniProt P02185 1-154) (natural protein)”, the stimulation of the ATPase activity of the 26S proteasome (580 nM substrate, 37°C, 15 min) came out at 2 fold.

For the next test the target is unchanged. Description: ELISA; competition: 8 nM apoMb on immobilised 26S proteasome with peptides 100 µM to 0.01 µM; 100 nM MG132 in all incubations; Ki from a one site binding fit. (ELISA stands for enzyme-linked immunosorbent assay.)
As for myoglobin peptide F7 (90-104), the percent inhibition of apoMb binding at 100 µM peptide turned out to be 65%.

myoglobin peptide E7 (69-83) came in with a percent inhibition of apoMb binding at 100 µM peptide of 34%.
